In IntAct's records for PubMed 26320582:

target: tom1_human TOM1 (UniProt O60784)
Sequence (O60784 whole entry): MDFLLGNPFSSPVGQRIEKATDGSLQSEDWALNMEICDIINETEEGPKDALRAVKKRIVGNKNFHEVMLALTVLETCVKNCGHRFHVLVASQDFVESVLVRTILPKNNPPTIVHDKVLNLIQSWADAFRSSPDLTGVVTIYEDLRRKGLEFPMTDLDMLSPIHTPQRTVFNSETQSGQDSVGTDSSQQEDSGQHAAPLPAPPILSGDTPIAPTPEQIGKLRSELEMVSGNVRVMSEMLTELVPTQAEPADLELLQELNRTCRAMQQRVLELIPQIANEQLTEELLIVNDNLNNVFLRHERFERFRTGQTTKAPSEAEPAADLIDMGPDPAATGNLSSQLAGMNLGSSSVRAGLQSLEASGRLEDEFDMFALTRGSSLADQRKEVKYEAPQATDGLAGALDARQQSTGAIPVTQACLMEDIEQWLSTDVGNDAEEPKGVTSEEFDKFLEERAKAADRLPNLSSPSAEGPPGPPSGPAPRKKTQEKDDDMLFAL

effect of a mutation on the interaction	Substance
decreasing interaction strength	Toll-interacting protein (Homo sapiens) (from UniProt Q9H0E2-1) D20A;R23A
decreasing interaction strength	Toll-interacting protein (Homo sapiens) (from UniProt Q9H0E2-1) F21A
decreasing interaction strength	Toll-interacting protein (Homo sapiens) (from UniProt Q9H0E2-1) R9A;V12A
